Values quoted from earlier work as cited in article PMC1976947.

Target: G-CSF receptor (Mus musculus) (UniProt P40223)
Chain of UniProt P40223 (P40223 26-837): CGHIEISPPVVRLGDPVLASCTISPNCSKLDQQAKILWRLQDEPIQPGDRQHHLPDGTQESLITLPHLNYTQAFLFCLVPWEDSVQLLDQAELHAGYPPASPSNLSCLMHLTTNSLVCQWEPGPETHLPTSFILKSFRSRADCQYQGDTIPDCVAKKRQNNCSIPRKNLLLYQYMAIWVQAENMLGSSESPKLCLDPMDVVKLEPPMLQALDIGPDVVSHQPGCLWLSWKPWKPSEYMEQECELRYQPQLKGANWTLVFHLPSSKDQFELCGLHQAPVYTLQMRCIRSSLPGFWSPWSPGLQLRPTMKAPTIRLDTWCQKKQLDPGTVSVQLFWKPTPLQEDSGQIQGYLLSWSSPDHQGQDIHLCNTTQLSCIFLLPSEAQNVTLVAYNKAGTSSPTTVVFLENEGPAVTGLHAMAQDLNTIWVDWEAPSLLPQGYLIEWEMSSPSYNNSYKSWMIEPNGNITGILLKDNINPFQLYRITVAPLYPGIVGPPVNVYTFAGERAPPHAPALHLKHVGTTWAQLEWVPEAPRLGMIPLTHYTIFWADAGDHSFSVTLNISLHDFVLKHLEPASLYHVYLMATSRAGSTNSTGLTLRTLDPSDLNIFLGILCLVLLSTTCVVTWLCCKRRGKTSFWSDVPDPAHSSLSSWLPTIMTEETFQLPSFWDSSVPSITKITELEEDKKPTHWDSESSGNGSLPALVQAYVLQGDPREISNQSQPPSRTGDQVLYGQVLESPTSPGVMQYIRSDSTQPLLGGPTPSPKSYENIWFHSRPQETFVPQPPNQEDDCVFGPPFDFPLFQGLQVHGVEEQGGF

Chain of G-CSF (P09919 31-207): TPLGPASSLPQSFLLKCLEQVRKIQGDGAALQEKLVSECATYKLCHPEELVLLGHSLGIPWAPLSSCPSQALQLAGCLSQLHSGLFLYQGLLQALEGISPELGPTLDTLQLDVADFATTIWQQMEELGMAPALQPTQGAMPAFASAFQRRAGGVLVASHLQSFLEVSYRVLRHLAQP

In the case of G-CSF (from UniProt P09919), the Kd is listed as 0.07 nM.
